Reference: publication PMC2516325

Target: recombinant CquiOBP1, odorant-binding protein from Culex pipiens quinquefasciatus (Culex pipiens quinquefasciatus)
Assay: SEC; gel filtration of purified recombinant CquiOBP1 on Superdex-75 26/60, 150 mM NaCl, 20 mM Tris-HCl pH 8; monomer and dimer peaks isolated; the dimer slowly dissociates into monomer (1 hour at room temperature, overnight at 4°C)

stoichiometry N: 2
Substance: recombinant CquiOBP1, odorant-binding protein from Culex pipiens quinquefasciatus (natural protein)
